Patent US20080300209, “GENE EXPRESSION AND PAIN” (ADYNXX, INC., published 2008)

Columns and labels:
[1] = biological target: T1, EGR1 (endogenous, HL60 cells) (Homo sapiens, UniProt P18146 P18146:1-543); experiment: cell_activity; inhibition of CDK5R1 mRNA in HL60 cells 48 h after vitamin D3; figure legend states 443 nM
[2] = biological target: T2, EGR1 (Homo sapiens, UniProt P18146 P18146:1-543); experiment: competition; ELISA; self-competition vs 128 nM biotinylated SEQ 40 probe, 10 ug nuclear extract; details: protein: extract; tags: endogenous in nuclear extract of TPA-stimulated K-562 cells (Activemotif); label: biotin (probe)
T2 sequence (P18146 whole entry, one chain of several): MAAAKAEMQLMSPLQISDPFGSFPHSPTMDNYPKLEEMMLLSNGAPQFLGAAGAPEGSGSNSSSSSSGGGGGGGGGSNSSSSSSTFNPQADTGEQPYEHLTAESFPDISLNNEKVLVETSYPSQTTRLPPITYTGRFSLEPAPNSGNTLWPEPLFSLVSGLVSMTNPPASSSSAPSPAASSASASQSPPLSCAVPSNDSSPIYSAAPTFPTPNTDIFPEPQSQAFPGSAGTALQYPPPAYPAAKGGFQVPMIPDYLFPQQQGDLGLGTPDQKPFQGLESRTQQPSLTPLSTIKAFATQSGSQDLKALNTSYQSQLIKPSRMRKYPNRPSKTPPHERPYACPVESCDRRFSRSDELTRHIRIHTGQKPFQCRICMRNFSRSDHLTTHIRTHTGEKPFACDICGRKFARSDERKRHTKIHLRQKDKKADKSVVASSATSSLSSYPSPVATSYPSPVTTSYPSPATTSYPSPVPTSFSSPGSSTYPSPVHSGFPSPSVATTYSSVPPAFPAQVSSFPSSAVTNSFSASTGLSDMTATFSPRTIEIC
Procedure: (§1) FIG. 2. A. Relative affinity. Quantitative competition ELISA involving hEGR1 were performed using a constant concentration of biotinylated SEQ ID NO.: 40 (128 nM) as the probe and 10 μg of protein extract. The probe-protein mix was incubated with increasing concentrations of SEQ ID NO.: 40, SEQ ID NO.: 41 or SEQ ID NO.: 42 competitors. The inhibition of hEGR1 binding by the probe was measured for each competitor at various concentrations and the resulting inhibition curves were fitted to an exponential decay model. […] Mean±SEM are given as a percentage of the maximum hEGR1 binding obtained with the probe in absence of competitor; n=2-4. B. Relative specificity. The relative binding of EGR1 oligonucleotide decoy sequences to hSP1 and hWT1 transcription factors was measured using quantitative ELISA. Top graph: representative OD binding values of SEQ ID NO.: 40 (128 nM) to either hSP1 or hWT1 transcription factors, as compared to hEGR1 binding, was detected with transcription factor-specific antibodies in either the presence or absence of SEQ ID NO.: 42 competitor (512 nM). For comparison, SEQ ID NO.: 11 binding to hSP1 is shown. […]
(§2) The affinity and specificity of decoy sequences for their transcription factor targets was measured with colorimetric transcription factor ELISA (Enzyme linked immuno adsorbent) kits (Panomics, Calif., USA). […]

[3] = biological target: T1, EGR1 (endogenous, HL60 cells); experiment: cell_activity; inhibition of CDK5R1 mRNA in HL60 cells 48 h after vitamin D3; figure legend states 136 nM
[4] = biological target: T2, EGR1; experiment: competition; ELISA vs 128 nM biotinylated SEQ 40 probe, 10 ug nuclear extract; details: protein: extract; tags: endogenous in nuclear extract of TPA-stimulated K-562 cells (Activemotif)
Procedure: as §1, §2

[5] = biological target: T1, EGR1 (endogenous, HL60 cells); experiment: cell_activity; inhibition of CDK5R1 mRNA in HL60 cells 48 h after vitamin D3; figure legend states 502 nM

T1 sequence (P18146 whole entry, one chain of several): as above

B1: SEQ ID NO 40 double EGR1 site decoy (dsDNA)
DNA 1: GTTATGCGTGGGCGTAGATGCGGGGGCGTTATAG
DNA 2: CTATAACGCCCCCGCATCTACGCCCACGCATAAC
B1 was tested. Which IC50 [1] did it give?
Its IC50 is 544 nM.

What about the IC50 [2] of the same binder?
Its IC50 is 215 nM.

B2: SEQ ID NO 42 fused EGR1 sites decoy (dsDNA)
DNA 1: GTATGCGTGGGCGGTGGGCGTAG
DNA 2: CTACGCCCACCGCCCACGCATAC
B2 was tested. Which IC50 [3] did it give?
Its IC50 is 150 nM.

And the IC50 [4]?
The IC50 was 99 nM.

B3: SEQ ID NO 41 EGR1 consensus decoy (dsDNA)
DNA 1: GATGCGTGGGCGTAGG
DNA 2: CCTACGCCCACGCATC
What does the source list for B3?
IC50 [5]: 529 nM; IC50 [4]: 250 nM
